Data published in paper PMC4750549.

Columns and labels:
CD200 (Homo sapiens) = CD200 (Homo sapiens) (UniProt P41217); conditions: cited from earlier work
CD200 (Mus musculus) = CD200 (Mus musculus) (UniProt O54901); conditions: cited from earlier work
[1] = biological target: CD200 (Rattus norvegicus) (UniProt P04218); conditions: cited from earlier work
[2] = biological target: rabbit CD200R rCD4d3+4 chimeric protein, biotinylated (rabbit (Oryctolagus cuniculus)); assay: SPR; BIAcore 3000, 37 °C, 10 mM HEPES pH 7.5, 150 mM NaCl, 3 mM EDTA, 0.02% P20; biotinylated rCD4d3+4 chimeras from concentrated tissue culture supernatants immobilised on streptavidin coated CM5 chip; purified monomeric soluble protein passed over in increasing concentrations; equilibrium binding, Langmuir isotherm
rabbit CD200R rCD4d3+4 chimeric protein, biotinylated (rabbit (Oryctolagus cuniculus)), sequence (main, as listed by the source mutant): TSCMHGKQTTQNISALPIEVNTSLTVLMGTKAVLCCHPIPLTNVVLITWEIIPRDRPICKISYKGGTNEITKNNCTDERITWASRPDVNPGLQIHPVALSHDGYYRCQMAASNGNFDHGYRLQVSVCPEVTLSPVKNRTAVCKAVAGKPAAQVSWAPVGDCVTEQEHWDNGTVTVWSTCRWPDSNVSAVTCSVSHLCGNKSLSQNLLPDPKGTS

[3] = biological target: rat CD200R rCD4d3+4 chimeric protein, biotinylated (rat) (UniProt Q9ES58); assay: as above
[4] = biological target: rabbit CD200 rCD4d3+4 chimeric protein, biotinylated (rabbit (Oryctolagus cuniculus)); assay: as above

UniProt O54901, sequence (O54901 31-232): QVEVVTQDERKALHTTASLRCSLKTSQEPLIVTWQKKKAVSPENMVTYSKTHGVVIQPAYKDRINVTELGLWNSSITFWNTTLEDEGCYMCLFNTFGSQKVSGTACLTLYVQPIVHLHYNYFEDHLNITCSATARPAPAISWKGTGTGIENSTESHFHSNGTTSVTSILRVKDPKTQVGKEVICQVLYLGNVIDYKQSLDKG
UniProt P41217, sequence (P41217 31-232): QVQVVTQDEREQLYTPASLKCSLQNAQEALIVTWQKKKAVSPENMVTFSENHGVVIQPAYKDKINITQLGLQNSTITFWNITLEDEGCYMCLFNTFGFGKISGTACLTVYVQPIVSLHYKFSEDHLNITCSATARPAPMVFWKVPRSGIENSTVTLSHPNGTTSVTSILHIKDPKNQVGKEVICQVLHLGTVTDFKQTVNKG
UniProt P04218, sequence (P04218 31-232): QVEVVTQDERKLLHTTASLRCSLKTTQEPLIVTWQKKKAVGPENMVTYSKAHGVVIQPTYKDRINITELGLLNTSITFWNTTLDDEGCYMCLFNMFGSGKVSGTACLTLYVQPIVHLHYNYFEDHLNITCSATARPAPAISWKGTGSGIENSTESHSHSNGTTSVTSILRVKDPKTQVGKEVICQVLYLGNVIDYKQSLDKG

Substance: CD200R (from UniProt Q8TD46)
- Kd (CD200 (Homo sapiens)): 0.5 µM

Substance: CD200R (from UniProt Q9ES57)
- Kd (CD200 (Mus musculus)): 4 µM

Substance: CD200R (from UniProt Q9ES58)
- Kd [1]: 1.5 µM

Substance: soluble recombinant rabbit CD200 (extracellular region, His tag) (from UniProt A0A0S4XRM6 1-233) (ligand)
- Kd [2]: 3.3 to 3.4 µM
- Kd [3]: 5.1 µM

Substance: soluble recombinant rabbit CD200R (extracellular region, His tag) (from UniProt A0A0S4XR64 1-238) (receptor)
- Kd [4]: 3.3 to 3.4 µM
